Laboratory results: the RNAGym collection of RNA variant scans (doi:10.1073/pnas.2313332121)
This sample holds only a part of the variants without activity.

B1: TPR 5TU (parent)
chain: GGAUCUUCUCGAUCUAACAAAAAAGACAAAUCUGCCACAAAGCUUGAGAGCAUCUUCGGAUGCAGAGGCGGCAGCCUUCGGUGGCGCGAUAGCGCCAACGUUCUCAACUAUGACACGCAAAACGCGUGCUCCGUUGAAUGGAGUUUAUCAUG

Variants of: B1
Test: polymerase ribozyme fitness, log enrichment relative to wild type (log ratio); higher = more active; in vitro selection for triplet polymerase activity
Procedure, shortened: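 Streptavidin-bead capture of gel-excised extended constructs, followed by RT-PCR, closed a single triplicate in vitro selection round. That round began by annealing PCR-built, transcribed mutant libraries of each subunit of a heterodimeric triplet polymerase ribozyme with a biotinylated primer, the partner subunit and triplets, then incubating them frozen at −7 °C. After Illumina sequencing of inputs and outputs, genotypes needed ≥10 input reads and ≥1 read per output. Fitness is the base-2 logarithm of genotype enrichment over wild-type enrichment, using inverse-variance-weighted replicate averages.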

| Variant | polymerase ribozyme fitness (log ratio) |
| --- | --- |
| C5G A37U G141U | -1.94 |
| C5A G48C | -0.334 |
| C5U A22C C85A | -9.25e-05 |
| C5A G81U C85G C99U U134A | -4.04 |
| C5U A12U A30C G59C C125G G126U | ≤ -4.2 |
| C5G A22U G58U A60U A64U G83C | ≤ -4.2 |
| C5G A16G C35U C63A C85U | -1.82 |
| C5U A20C C43G C76G C108G C114U A120U U146G | ≤ -4.2 |
| C5A A37U C51U U56A C79A C96G C116G G133C | ≤ -4.2 |
| C5G G83A | -1.24 |
| C5G U45G U55G G86U C87A A91U | ≤ -4.2 |
| C5A U61A U102G | ≤ -4.2 |
| C5U A24C C79A G84A U104A A142G | ≤ -4.2 |
| C5A A60G | 0.956 |
| C5G C103A G117A | -2.88 |
| C5U C87U | 0.457 |
| U4G G84A C87U A106C G141A U144G | ≤ -4.2 |
| C5G A28G A30C C36U A47U C57U C85A A91U C118U A120G C125G A142G | ≤ -4.2 |
| C5A C87U C129A | -3.51 |
| C5G U56A G84U U144A | -3.4 |
| C5U C96U | 0.36 |
| C5G U101G | 0.0588 |
| C5G U9C A97G G141C | -3.27 |
| C5A C18G A40U | -0.118 |

| Variant | polymerase ribozyme fitness (log ratio) |
| --- | --- |
| C5U C54U U82A C95G A147U | -1.27 |
| C5G G50A C87U C103G U111C C132U | ≤ -4.2 |
| C5G C10U C76A C87U G92A | -2.35 |
| C5U A24G G94A C123U G140U | ≤ -4.2 |
| C5A U7C C18G U55A G58A A89C | -1.54 |
| U4G U7G A49U C75G C93U | ≤ -4.2 |
| C5U C87U G94C | -2.15 |
| C5G U15G A52G | -1.06 |
| C5G A17G | -0.0409 |
| C5G U144G | 0.355 |
| C5G C18A C87G G143A | ≤ -4.2 |
| U4G U9A C35A G48C U134G | ≤ -4.2 |
| C5A G136A | 0.816 |
| U4G U6G C85U G141A | -3.39 |
| C5A C51U | -0.595 |
| C5A A26G A115G | ≤ -4.2 |
| C5G U7C A16C C27U C32G A49C U53G C125A A137U G143C | ≤ -4.2 |
| C5G A20G C27A C72U A120U | ≤ -4.2 |
| C5A G62C G67C G94A A106U | ≤ -4.2 |
| C5A C27U | -1.46 |
| C5U G25C G42U U61A A107U G133U A142C U148A | ≤ -4.2 |
| U4G U55G | -0.607 |
| C5G U55A | -0.729 |
| C5G U53A | -1.8 |

| Variant | polymerase ribozyme fitness (log ratio) |
| --- | --- |
| U4G G48A G88C C123U U134G A137C | ≤ -4.2 |
| C5U A12U C18G G70C G80A C93G C95U A98G U144G | ≤ -4.2 |
| C5A U7G G88U C105G G136A A137U G152U | ≤ -4.2 |
| C5U G11A A29U G70C G84A C96U | ≤ -4.2 |
| C5A A37U | -0.964 |
| C5A C103A | -1.35 |
| C5A A17U U45A G71C G84A A89U U104G U145G | ≤ -4.2 |
| U4G G48U G84A C93A G133A G141C | ≤ -4.2 |
| U4G U13A C57A A106C G136A | -1.91 |
| C5U A40G G84A A97G | -3.39 |
| C5A A16U G46C G84U A91G U109C A115U G136C | ≤ -4.2 |
| C5G A29C A47C G50A G86A U90A A91U G143C | ≤ -4.2 |
| C5U A28U A40U C57U G83C A89G | ≤ -4.2 |
| C5G A37U A40U C95A U139A | ≤ -4.2 |
| C5U A41U G68A G94A C99G U102G A115G C125G | ≤ -4.2 |
| U4G U31G G50C G68A C75A G86U C95U U101A | ≤ -4.2 |
| C5A A19U G86C | -3.47 |
| C5A C96U | 0.321 |
| C5A G81A | 0.566 |
| C5G A28G G48C G83C U104G G133U | ≤ -4.2 |
| C5G C8G C85A G126U | ≤ -4.2 |
| C5G G50C | -3.2 |
| C5A A21U G50A C85A C96A C118G G133C C149U | ≤ -4.2 |
| C5A A47U G84A G124U | -1.14 |

| Variant | polymerase ribozyme fitness (log ratio) |
| --- | --- |
| C5G C27U C38G G81A U104C A115C | ≤ -4.2 |
| C5G G59U C99U A119G | -1.53 |
| C5A A20C | 0.413 |
| C5G A12C A40U G58C G83U C118G | -3.96 |
| C5G A21U A49G C93A A137U | ≤ -4.2 |
| C5U A22U C27G C36G G83U C103G C116U G136U | ≤ -4.2 |
| C5A A41G G58A A60C G84A A106U C131U U146A | -3.76 |
| C5U C8G U9G U61G U77A G84A U146C | ≤ -4.2 |
| C5A C69A G84A U104G C125U G126A A142C | ≤ -4.2 |
| C5A C38U G59A C87G C103A A121U G126A U146C | ≤ -4.2 |
| C5U C8U G58A A73G C114U A120G | -3.02 |
| C5G A73U G124A | -1.49 |
| C5G A17G C38A A47C A60C U82C C95G C123U G143A A147G | ≤ -4.2 |
| C5U A19G C57U G84U G117U A120U | -2.48 |
| U4G C93U | -0.624 |
| C5A G86U A107G G152A | ≤ -4.2 |
| C5A U13A A24G U82C G100C | ≤ -4.2 |
| C5A C54U C87U U148C | -2.76 |
| C5A C57U C85U | 0.39 |
| C5U C54G | -0.591 |
| C5G C132U U146G | -3.69 |
| C5A A30G C36U G68U G100A | ≤ -4.2 |
| C5G C14G C43G A73G G92U A97C | ≤ -4.2 |
| C5A G67C C103A G141U A150C | ≤ -4.2 |

| Variant | polymerase ribozyme fitness (log ratio) |
| --- | --- |
| C5G U9C A16C A28G A30U C32G C35A G59U G92U C105U G143C | ≤ -4.2 |
| C5A C79A G88A A106C | ≤ -4.2 |
| C5U A23C A40C A49U G70C G94A | ≤ -4.2 |
| C5G G71U | -3.09 |
| C5G A23C C72U G88U C132G U135G U148G | -3.99 |
| C5G G48C G62C A97U G141U | ≤ -4.2 |
| C5G U55A C93U C118A | -3.5 |
| C5G U56A G94C A120G | -1.95 |
| C5G G46A G92C | -4.13 |
| C5A A16U U53A C57G U90G C95A | ≤ -4.2 |
| C5U A21G G59C C93G | -1.3 |
| C5G C14G A41C G48C G126A G140A | ≤ -4.2 |
| C5A A20C C35A G62A C76A C96G G140A G143C | ≤ -4.2 |
| C5G A17G A26C A40U U82G C87U C118G C129A C131A G141C | ≤ -4.2 |
| C5A A40G C87U | -2.81 |
| C5A C85G C105U | -1.21 |
| U4G G88U | -3.2 |
| U4G C87A | ≤ -4.2 |
| C5G C35U G50A U55A C57A A66C C87A U134C | ≤ -4.2 |
| C5A A47U C76G G94C U101G | -4.01 |
| C5G C35U A52C G59C A106G C108A C114U A119U A122U G133U | ≤ -4.2 |
| C5A U45C A64U C75A G141C U145C A150U | ≤ -4.2 |
| C5G C54U G84A U127G | ≤ -4.2 |
| C5A A41C C54U C85A C103A G117A G133C A137U | ≤ -4.2 |

| Variant | polymerase ribozyme fitness (log ratio) |
| --- | --- |
| C5G U7A U56A A91C A106G C125A G136A U145A | ≤ -4.2 |
| C5A C38U G50A A60G C95A C103U G126U | -3.13 |
| U4G U13G A30C U31A G50U C95U C103A C105U | ≤ -4.2 |
| U4G G74A G84U U109A | ≤ -4.2 |
| U4G G11U A20U A28U U56A C85U C99U U151A | ≤ -4.2 |
| C5G A12U U31A A41U C54U U56A G88A U127C A137C G141A | ≤ -4.2 |
| C5A C27U C75A A142G U146G | ≤ -4.2 |
| C5A U45C G58U U82C G84A | -3.97 |
| C5U A49C G81U C93G | ≤ -4.2 |
| C5A U9A A41G C76G A91U G126A G136A | ≤ -4.2 |
| U4G U7G U13G C43A C54U U78G G94C | ≤ -4.2 |
| C5G C38A A39C A60U A73G G94U U104A A138U | ≤ -4.2 |
| C5G A40C G71A C85A A142C A150C | ≤ -4.2 |
| C5G C8U A24G G34A A41G G70C A107G G124U U151G | ≤ -4.2 |
| C5G A20G C51U A106G | -1.64 |
| C5G A19G A29C A39C U145C | ≤ -4.2 |
| C5G A39G G88A C131G | ≤ -4.2 |
| C5A C85U | -0.371 |
| C5G U78C G84A G136U | -3.39 |
| C5A A28G C35G A37U C85G C96G C103G U151A | -3.65 |
| C5G A17G A20U C57U A66U G86C A107G C108A | ≤ -4.2 |
| C5U A21U | 1.4 |
| C5G A52G G83C C93U | -3.55 |
| C5G C87U | -0.787 |

| Variant | polymerase ribozyme fitness (log ratio) |
| --- | --- |
| C5G C87A | ≤ -4.2 |
| C5A U6A G94U C123U U148G | ≤ -4.2 |
| U4G U56G C85A G141C | -2.61 |
| C5U A28C A64U G84A | ≤ -4.2 |
| C5U A19C A39G G80C C87U C105G U135A | ≤ -4.2 |
| C5A U148G | -3.62 |
| C5A A49U C57A | -0.832 |
| C5A G86C G92U | -3.93 |
| C5G A29G G46U A60G | ≤ -4.2 |
| C5G A12G A22U C38A U44G C75A C79U C93A G133U | ≤ -4.2 |
| U4G G58A C85U A115U U144G | -2.13 |
| U4G G94A A115U U151G | ≤ -4.2 |
| C5U G46U C85G | -2.05 |
| U4G G11U A40U U55A A98U | -3.1 |
| C5U A28U C51G A52C G67A G94C | ≤ -4.2 |
| C5G A28C A73G | ≤ -4.2 |
| C5A G50A C105U C116A | -1.3 |
| C5G U6A C32G U77A C87G C114U | ≤ -4.2 |
| C5G U13C A17C G83U U134C A137C | ≤ -4.2 |
| C5G U6G C38U A41U A47U G86A A91C | ≤ -4.2 |
| C5A C38U A66C C72U C79A C96A G117A | ≤ -4.2 |
| C5G A20C G48C U56A G62A | -4.11 |
| C5G G11A A73G C76U | -2.17 |
